In patent US20240238441A1 one finds Selection pattern Distribution (%), EV Fraction and Wnt7a expression per ug of total protein, EV Fraction (tangential flow filtration) (per ug of total protein) data, which are given here for 1 molecule.

In assay [1] the target is Coatomer complex of HEK293T cells (Homo sapiens (Human)) (UniProt P53621).
Assay [2] shares this target. The source holds these as a separate data set.

B1: Wnt7a-HA (ligand)
chain: LGASIICNKIPGLAPRQRAICQSRPDAIIVIGEGSQMGLDECQFQFRNGRWNCSALGERTVFGKELKVGSREAAFTYAIIAAGVAHAITAACTQGNLSDCGCDKEKQGQYHRDEGWKWGGCSADIRYGIGFAKVFVDAREIKQNARTLMNLHNNEAGRKILEENMKLECKCHGVSGSCTTKTCWTTLPQFRELGYVLKDKYNEAVHVEPVRASRNKRPTFLKIKKPLSYRKPMDTDLVYIEKSPNYCEEDPVTGSVGTQGRACNKTAPQASGCDLMCCGRGYNTHQYARVWQCNCKFHWCCYVKCNTCSERTEMYTCKYPYDVPDYA
Turning to B1, in assay [1], the Selection pattern Distribution (%), EV Fraction was determined as 83.4%. Besides, the Wnt7a expression per ug of total protein, EV Fraction (tangential flow filtration) (per ug of total protein) in assay [2] stood at 0.13.
